Data from the Human Domainome abundance scans (Beltran et al. 2025).
± gives the uncertainty stated by the source.

B1: DnaJ homolog subfamily C member 5, residues 16 to 77; numbered along this chain, Q9H3Z4 (parent)
chain: LYHVLGLDKNATSDDIKKSYRKLALKYHPDKNPDNPEAADKFKEINNAHAILTDATKRNIYD

Variants of: B1
Assay: abundance fitness (aPCA) (normalised: wild type 0, dead -1); higher = more abundant; growth selection in yeast, the domain comes from the species named
Settings: Homo sapiens

Abundance fitness: each site, then its substitutions
H49: M -0.002 ± 0.11 | Y -0.251 ± 0.13 | N -0.062 ± 0.17 | Q -0.161 ± 0.15
D40: Y -0.05 ± 0.16
F42: N -0.237 ± 0.096 | Y -0.017 ± 0.18 | G -0.278 ± 0.07 | V -0.197 ± 0.065 | E -0.192 ± 0.11 | D -0.119 ± 0.1 | K -0.188 ± 0.12 | R -0.17 ± 0.059 | S -0.219 ± 0.097 | A -0.28 ± 0.076 | L 0.202 ± 0.061 | M 0.223 ± 0.1 | C -0.243 ± 0.11 | Q -0.233 ± 0.078 | I -0.135 ± 0.05 | P -0.41 ± 0.099 | W -0.05 ± 0.073 | H -0.421 ± 0.17
N59: M -0.179 ± 0.1 | G 0.101 ± 0.077 | F -0.151 ± 0.16 | C 0.032 ± 0.11 | A 0.197 ± 0.12 | E 0.152 ± 0.11 | Q 0.007 ± 0.1 | I -0.044 ± 0.12 | W -0.396 ± 0.087 | Y -0.471 ± 0.17 | V -0.121 ± 0.1 | R -0.107 ± 0.072 | L -0.139 ± 0.063 | H -0.125 ± 0.14 | S -0.029 ± 0.089 | D -0.234 ± 0.19
T56: D -0.095 ± 0.2 | A -0.233 ± 0.15 | Y -0.424 ± 0.27 | W -0.475 ± 0.13 | K -0.101 ± 0.12 | V -0.396 ± 0.1 | M -0.334 ± 0.21 | H -0.264 ± 0.11 | Q -0.417 ± 0.18 | C -0.069 ± 0.12 | E 0.097 ± 0.16 | F -0.499 ± 0.26 | G -0.09 ± 0.065 | S -0.15 ± 0.092 | P -0.516 ± 0.11 | L -0.421 ± 0.09 | I -0.425 ± 0.14 | R -0.246 ± 0.066
Y61: C -0.063 ± 0.098 | A 0.165 ± 0.089 | E 0.157 ± 0.12 | F -0.273 ± 0.12 | G 0.226 ± 0.063 | D 0.22 ± 0.12
N46: K -0.058 ± 0.14 | T 0.256 ± 0.092 | L -0.169 ± 0.097 | D -0.578 ± 0.24 | I -0.178 ± 0.16 | C 0.174 ± 0.2 | F -0.065 ± 0.18 | A 0.272 ± 0.12 | R -0.017 ± 0.072 | H -0.081 ± 0.11 | M -0.113 ± 0.1 | G -0.082 ± 0.084 | Y -0.312 ± 0.45 | P -0.653 ± 0.13 | Q -0.035 ± 0.17 | W -0.778 ± 0.13 | V 0.182 ± 0.085 | E 0.093 ± 0.12
I60: T 0.054 ± 0.12 | S 0.258 ± 0.076 | R 0.08 ± 0.059 | D 0.493 ± 0.21 | K 0.197 ± 0.11 | Y -0.074 ± 0.16 | G 0.223 ± 0.065 | V 0.176 ± 0.093 | E 0.522 ± 0.094 | H -0.135 ± 0.2 | Q 0.168 ± 0.13 | C 0.109 ± 0.1 | P -0.039 ± 0.088 | L 0.077 ± 0.093 | W 0.008 ± 0.09 | A 0.257 ± 0.092 | M 0.114 ± 0.1
I45: Q -0.45 ± 0.091 | R -0.623 ± 0.068 | N -0.381 ± 0.18 | K -0.263 ± 0.093 | F -0.747 ± 0.13 | V 0.007 ± 0.065 | W -0.841 ± 0.089 | A -0.181 ± 0.076 | P -0.425 ± 0.13 | C -0.44 ± 0.11 | G -0.253 ± 0.063 | E -0.203 ± 0.083 | H -0.792 ± 0.15 | D -0.311 ± 0.2 | T -0.216 ± 0.086 | L -0.026 ± 0.063 | S -0.47 ± 0.065 | Y -0.366 ± 0.14 | M -0.418 ± 0.084
K43: G -0.116 ± 0.11 | Y 0.364 ± 0.29 | W -0.276 ± 0.15 | M 0.382 ± 0.25 | H 0.519 ± 0.48 | R -0.263 ± 0.15 | F 0.349 ± 0.17 | A 0.299 ± 0.17 | Q 0.362 ± 0.17 | T 0.051 ± 0.2 | D 0.015 ± 0.3 | P -1.02 ± 0.34 | S -0.043 ± 0.19 | N -0.23 ± 0.3 | E -0.34 ± 0.18
L52: S -0.493 ± 0.098 | V -0.524 ± 0.085 | F -0.295 ± 0.39 | D -0.381 ± 0.16 | R -0.479 ± 0.079 | I -0.592 ± 0.23 | G -0.555 ± 0.094 | K -0.419 ± 0.098 | E -0.293 ± 0.12 | C -0.963 ± 0.26 | M -0.395 ± 0.11 | H -0.767 ± 0.26 | A -0.303 ± 0.12 | P -0.292 ± 0.12 | Q -0.572 ± 0.1 | N -1.02 ± 0.42 | W -0.454 ± 0.11 | T -0.446 ± 0.081
I51: R -0.318 ± 0.064 | P -0.166 ± 0.087 | C -0.142 ± 0.1 | S -0.262 ± 0.1 | T -0.08 ± 0.084 | D 0.123 ± 0.2 | M -0.131 ± 0.1 | E -0.301 ± 0.16 | F -0.326 ± 0.23 | Q 0.036 ± 0.11 | L -0.149 ± 0.061 | V 0.106 ± 0.085 | A -0.146 ± 0.11 | W -0.712 ± 0.14 | N -0.304 ± 0.13 | Y -0.353 ± 0.25 | G -0.257 ± 0.094
